Assay results taken from US6627405 (CURAGEN, dated 2003).

T1: Ral GDS (GenBank Acc. No. U14417) (UniProt Q12967 1-914, limits assumed)
T1 construct: Expressed as a Gal4 hybrid in yeast
T1 sequence (looked up): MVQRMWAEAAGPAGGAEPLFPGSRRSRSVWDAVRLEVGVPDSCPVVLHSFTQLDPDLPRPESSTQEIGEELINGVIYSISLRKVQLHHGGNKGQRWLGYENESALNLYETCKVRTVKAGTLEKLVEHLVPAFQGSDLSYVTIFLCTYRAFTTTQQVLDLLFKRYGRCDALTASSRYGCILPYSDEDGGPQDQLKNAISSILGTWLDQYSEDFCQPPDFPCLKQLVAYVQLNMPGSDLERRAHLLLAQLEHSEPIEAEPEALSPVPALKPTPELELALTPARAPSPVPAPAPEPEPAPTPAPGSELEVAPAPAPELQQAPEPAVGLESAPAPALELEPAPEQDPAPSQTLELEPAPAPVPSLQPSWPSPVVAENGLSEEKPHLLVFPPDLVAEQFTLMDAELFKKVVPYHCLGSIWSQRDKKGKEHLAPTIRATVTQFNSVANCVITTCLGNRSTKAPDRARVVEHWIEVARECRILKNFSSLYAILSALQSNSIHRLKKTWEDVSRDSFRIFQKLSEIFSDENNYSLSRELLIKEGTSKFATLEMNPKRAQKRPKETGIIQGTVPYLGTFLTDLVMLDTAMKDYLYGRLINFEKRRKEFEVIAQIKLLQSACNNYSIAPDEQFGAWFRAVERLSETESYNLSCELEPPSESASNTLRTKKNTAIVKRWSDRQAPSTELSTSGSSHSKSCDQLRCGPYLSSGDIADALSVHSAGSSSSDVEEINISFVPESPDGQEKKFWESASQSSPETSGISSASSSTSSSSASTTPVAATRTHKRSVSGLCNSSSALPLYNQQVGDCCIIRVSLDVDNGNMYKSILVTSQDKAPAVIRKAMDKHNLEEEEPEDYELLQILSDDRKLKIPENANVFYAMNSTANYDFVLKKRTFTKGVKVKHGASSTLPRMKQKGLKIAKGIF

T2: pRb (GenBank Acc. No. M28419) (UniProt P06400 1-928, limits assumed)
T2 construct: Expressed as a Gal4 hybrid in yeast
T2 sequence (looked up): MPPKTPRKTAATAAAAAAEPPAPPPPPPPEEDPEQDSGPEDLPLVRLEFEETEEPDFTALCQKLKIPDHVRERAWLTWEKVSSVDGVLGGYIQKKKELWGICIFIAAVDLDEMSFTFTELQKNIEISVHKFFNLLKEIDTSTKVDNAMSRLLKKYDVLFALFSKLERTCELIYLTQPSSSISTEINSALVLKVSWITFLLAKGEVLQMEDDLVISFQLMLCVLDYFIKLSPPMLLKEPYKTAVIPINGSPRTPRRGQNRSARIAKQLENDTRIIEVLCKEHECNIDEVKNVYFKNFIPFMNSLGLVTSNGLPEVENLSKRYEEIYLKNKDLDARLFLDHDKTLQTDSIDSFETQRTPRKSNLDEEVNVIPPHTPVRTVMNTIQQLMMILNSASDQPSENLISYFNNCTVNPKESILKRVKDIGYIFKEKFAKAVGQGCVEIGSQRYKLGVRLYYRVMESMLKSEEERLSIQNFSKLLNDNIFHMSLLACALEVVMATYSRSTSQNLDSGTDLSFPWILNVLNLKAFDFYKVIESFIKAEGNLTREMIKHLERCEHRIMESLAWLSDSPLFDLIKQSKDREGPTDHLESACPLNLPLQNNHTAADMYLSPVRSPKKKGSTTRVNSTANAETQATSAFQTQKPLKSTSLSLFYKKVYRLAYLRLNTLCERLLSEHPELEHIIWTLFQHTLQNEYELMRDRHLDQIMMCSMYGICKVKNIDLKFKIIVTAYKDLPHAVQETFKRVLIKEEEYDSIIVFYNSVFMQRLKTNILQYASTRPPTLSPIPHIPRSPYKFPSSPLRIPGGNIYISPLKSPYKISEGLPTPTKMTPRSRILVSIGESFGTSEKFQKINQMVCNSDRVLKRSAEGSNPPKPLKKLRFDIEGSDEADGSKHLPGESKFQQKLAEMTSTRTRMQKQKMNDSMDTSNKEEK

T3: CAS (GenBank Acc. No. U33286) (UniProt P55060 1-971, limits assumed)
T3 construct: Bait hybrid expressed in yeast strain N106r
T3 sequence (looked up): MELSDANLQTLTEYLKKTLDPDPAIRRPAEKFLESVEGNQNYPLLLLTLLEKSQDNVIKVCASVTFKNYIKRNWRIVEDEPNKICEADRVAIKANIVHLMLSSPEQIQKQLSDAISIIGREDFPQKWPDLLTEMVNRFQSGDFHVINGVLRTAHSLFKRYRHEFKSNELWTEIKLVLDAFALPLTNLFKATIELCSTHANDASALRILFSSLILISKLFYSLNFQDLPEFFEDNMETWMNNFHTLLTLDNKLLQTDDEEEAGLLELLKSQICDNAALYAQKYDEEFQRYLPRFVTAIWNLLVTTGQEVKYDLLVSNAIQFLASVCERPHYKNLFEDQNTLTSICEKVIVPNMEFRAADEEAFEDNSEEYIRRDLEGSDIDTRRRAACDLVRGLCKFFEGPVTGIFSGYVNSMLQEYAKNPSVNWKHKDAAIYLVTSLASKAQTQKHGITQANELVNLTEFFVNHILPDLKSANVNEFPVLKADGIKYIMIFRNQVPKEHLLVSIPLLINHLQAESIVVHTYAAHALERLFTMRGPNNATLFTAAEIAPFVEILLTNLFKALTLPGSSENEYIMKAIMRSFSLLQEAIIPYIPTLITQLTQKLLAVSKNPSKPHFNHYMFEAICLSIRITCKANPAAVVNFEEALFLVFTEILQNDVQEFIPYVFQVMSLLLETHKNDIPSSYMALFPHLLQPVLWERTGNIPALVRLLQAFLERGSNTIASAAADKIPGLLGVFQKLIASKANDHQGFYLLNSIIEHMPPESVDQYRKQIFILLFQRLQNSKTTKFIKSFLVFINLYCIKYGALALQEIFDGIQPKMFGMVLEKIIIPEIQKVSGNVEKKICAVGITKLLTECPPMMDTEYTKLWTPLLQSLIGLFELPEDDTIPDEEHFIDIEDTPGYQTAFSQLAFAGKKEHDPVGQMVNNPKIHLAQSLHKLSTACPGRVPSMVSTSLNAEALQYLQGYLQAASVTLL


Columns and labels:
Assay in all cases: yeast two hybrid mating, growth on selective medium
[1] = target: T1, Ral GDS (GenBank Acc. No. U14417)
Experimental: (§1) The two mating strains, alpha and a, were then, diluted in YAPD media (Sherman et al., eds., 1991, *Getting Started with Yeast*, Vol. 194, Academic Press, New York), filtered onto nitrocellulose membranes, and incubated at 30 degrees Celsius for 6–8 hours. The cells were then transferred to media selective for the desired diploids, i.e., yeast harboring reporter genes for beta-galactosidase, uracil auxotrophy, and histidine auxotrophy, and expression of the vectors encoding the bait and prey. The mating products were plated on SC (synthetic complete) (Kaiser et al. eds., 1994, *Methods in Genetics*, 1994 ed., Cold Spring Harbor Press, New York, p. 209) media lacking adenine and lysine (to select for successful mating), leucine and tryptophan (to select for expression of genes encoded by both the bait and prey plasmids), and uracil and histidine (to select for protein interactions). This medium is herein referred to as SCS medium, for SC Selective medium.
(§2) No. X03541, Martin-Zanca, et al., 1986, Nature 319: 743–748), EST M62042 (Adams et al., 1991, Science 252: 1651–1656), Ral GDS (GenBank Acc. No. U14417, Hofer, et al., 1994, Proc. Natl. Acad. Sci. U.S.A. 91: 11089–11093) or E2F (GenBank Acc. […] No. M92424, Oliner et al., 1994, direct submission), CAS (GenBank Acc. No. U33286, Brinkmann et al., 1995, Proc. Natl. Acad. Sci. U.S.A. 92: 10427–10431), and PA9 (GenBank Acc. No. S82076, Yang et al., 1996, Carcinogenesis 17:563–567) Specifically, lack of growth for p62 and β-tubulin interactions with MDM2 is depicted in FIG. 7.

[2] = target: T2, pRb (GenBank Acc. No. M28419)
Experimental: as §1, §2

[3] = target: T4, MDM2 (GenBank Acc. No. M92424) (UniProt Q00987 1-491, limits assumed)
T4 construct: Bait hybrid expressed in yeast strain N106r; also called MDM2 bait
T4 sequence (Q00987 whole entry, one chain of several): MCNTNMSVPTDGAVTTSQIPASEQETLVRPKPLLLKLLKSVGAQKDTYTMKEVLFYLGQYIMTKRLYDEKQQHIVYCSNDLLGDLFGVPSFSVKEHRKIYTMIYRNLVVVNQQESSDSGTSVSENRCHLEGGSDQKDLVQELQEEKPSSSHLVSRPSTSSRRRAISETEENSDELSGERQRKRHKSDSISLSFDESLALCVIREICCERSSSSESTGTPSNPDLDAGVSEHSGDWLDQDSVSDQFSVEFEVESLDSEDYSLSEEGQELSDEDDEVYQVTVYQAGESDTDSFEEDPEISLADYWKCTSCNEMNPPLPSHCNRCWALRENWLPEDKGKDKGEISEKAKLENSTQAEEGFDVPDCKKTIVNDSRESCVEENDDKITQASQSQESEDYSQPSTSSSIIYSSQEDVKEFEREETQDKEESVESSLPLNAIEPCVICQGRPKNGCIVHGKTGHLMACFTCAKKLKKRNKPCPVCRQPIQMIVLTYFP
Experimental: as §1, §2

[4] = target: T3, CAS (GenBank Acc. No. U33286)
Experimental: as §1, §2

binding result [1]	binding result [2]	binding result [3]	binding result [4]	Binder
no binding	no binding	–	–	53BP2 bait fragment, amino acids 704-1005 (C-terminus) of human 53BP2 (other, also called BBP; not shown: residues not) SPGLDYEPEGVPDNSPNLQNNPEEPNPEAPHVLDVYLEEYPPYPPPPYPSGEPEGPGEDSVSMRPPEITGQVSLPPGKRTNLRKTGSERIAHGMRVKFNPLALLLDSSLEGEFDLVQRIIYEVDDPSLPNDEGITALHNAVCAGHTEIVKFLVQFGVNVNAADSDGWTPLHCAASCNNVQVCKFLVESGAAVFAMTYSDMQTAADKCEEMEEGYTQCSQFLYGVQEKMGIMNKGVIYALWDYEPQNDDELPMKEGDCMTIIHREDEDEIEWWWARLNDKEGYVPRNLLGLYPRIKPRQRSLA
–	–	no binding	no binding	p62 prey sequence, amino acids 275-443 (other, yeast) NGVPEPSRGRGVPVRGRGAAPPPPPVPRGRGVGPPRGALVRGTPVRGAITRGATVTRGVPPPPTVRGAPAPRARTAGIQRIPLPPPPAPETYEEYGYDDTYAEQSYEGYEGYYSQSQGDSEYYDYGHGEVQDSYEAYGQDDWNGTRPSLKAPPARPVKGAYREHPYGRY
